In patent US20250179196A1 (Janssen / Centocor, published 2025):

T1: human IL-23R extracellular domain (ECD) protein (human, UniProt Q5VWK5 24-355)
T1 construct: Recombinant ECD; also called hu IL-23R ECD
T1 sequence: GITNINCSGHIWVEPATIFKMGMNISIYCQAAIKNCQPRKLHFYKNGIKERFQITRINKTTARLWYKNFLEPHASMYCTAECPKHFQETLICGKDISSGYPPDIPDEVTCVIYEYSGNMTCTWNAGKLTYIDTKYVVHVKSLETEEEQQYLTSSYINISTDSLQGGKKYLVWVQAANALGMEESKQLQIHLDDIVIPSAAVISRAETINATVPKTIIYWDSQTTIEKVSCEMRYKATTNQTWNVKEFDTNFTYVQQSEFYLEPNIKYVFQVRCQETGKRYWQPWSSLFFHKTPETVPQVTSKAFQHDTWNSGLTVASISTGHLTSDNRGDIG

T2: human IL-23R expressed on the cell surface of stably transfected iLite and HEK cell lines (human, UniProt Q5VWK5 24-629)
T2 construct: whole, on cells; Same receptor on two transfected cell lines; the cell line is named under assay; also called human IL-23R iLite cells; human IL-23R HEK cells
T2 sequence (looked up): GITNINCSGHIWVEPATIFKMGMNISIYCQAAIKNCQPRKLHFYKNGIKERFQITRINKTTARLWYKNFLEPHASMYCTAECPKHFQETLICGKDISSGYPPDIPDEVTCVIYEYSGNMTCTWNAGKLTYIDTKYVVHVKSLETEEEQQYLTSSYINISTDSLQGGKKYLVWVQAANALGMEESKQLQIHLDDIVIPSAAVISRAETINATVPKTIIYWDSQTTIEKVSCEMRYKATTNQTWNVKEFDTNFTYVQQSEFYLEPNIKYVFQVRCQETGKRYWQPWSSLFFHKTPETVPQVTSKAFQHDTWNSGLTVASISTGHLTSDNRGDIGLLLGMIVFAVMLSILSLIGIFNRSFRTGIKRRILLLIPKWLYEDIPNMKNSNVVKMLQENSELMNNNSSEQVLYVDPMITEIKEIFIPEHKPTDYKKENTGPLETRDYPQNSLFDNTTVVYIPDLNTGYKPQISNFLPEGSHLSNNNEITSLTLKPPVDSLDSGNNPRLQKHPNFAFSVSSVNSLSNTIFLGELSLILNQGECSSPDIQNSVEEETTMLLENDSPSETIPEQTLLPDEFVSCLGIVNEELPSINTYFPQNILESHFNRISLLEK

T3: Recombinant human IL-23 receptor (IL-23R) extracellular domain (ECD) protein (human, UniProt Q5VWK5 24-355)
T3 construct: also called human IL-23R ECD; hu IL-23R ECD
T3 sequence: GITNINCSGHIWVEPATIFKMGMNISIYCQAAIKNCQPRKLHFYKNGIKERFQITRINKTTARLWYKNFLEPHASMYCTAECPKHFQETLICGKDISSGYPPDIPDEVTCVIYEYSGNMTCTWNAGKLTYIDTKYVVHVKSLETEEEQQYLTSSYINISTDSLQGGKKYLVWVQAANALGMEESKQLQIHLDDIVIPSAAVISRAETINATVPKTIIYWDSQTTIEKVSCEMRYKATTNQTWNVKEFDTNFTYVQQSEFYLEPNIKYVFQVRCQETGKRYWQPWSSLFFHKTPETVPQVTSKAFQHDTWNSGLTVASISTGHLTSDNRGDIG

T4: rat IL-23R extracellular domain (ECD) protein (rat)
T4 construct: also called rat IL-23R ECD; F1LX96 amino acids 24-354
T4 chain: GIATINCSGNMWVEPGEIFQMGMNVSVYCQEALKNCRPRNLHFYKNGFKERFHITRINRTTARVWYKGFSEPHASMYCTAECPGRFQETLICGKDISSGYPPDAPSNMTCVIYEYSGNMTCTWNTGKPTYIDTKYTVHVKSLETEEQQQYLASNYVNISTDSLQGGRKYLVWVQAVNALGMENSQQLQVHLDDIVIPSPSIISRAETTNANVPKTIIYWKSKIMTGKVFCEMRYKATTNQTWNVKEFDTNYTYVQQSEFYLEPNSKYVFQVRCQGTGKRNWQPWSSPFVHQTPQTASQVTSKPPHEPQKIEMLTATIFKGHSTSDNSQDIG


Legend:
[1] = biological target: T1, human IL-23R extracellular domain (ECD) …; test: column 'Affinity to hu IL-23R ECD' (summary of SPR data)
[2] = biological target: T2, human IL-23R expressed on the cell …; test: flow cytometry on human IL-23R HEK cells, Expt D (8-point, 96well)
Method in brief: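 Serially diluted IL-23R mAbs bound to mixed HEK-IL-23R and parental HEK cells for 30 min at 37 °C, in duplicate. After washes, 647 detection antibody geometric MFI measured on single viable (Sytox Green-negative) cells and fitted to a variable-slope dose-response against log mAb concentration.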

[3] = biological target: T2, human IL-23R expressed on the cell …; test: flow cytometry on human IL-23R HEK cells, Expt E (11-point, 384well)
Method in brief: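 Antibody bound to HEK-IL-23R cells 30 min at 37 °C over 11 concentrations; after washes, Sytox Green added and cells run on iQue. Geometric MFI of 647 detection antibody on single viable cells fitted by variable-slope dose–response.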

[4] = biological target: T3, Recombinant human IL-23 receptor …; test: SPR ProteOn, purified
Procedure: Affinity by SPR using ProteOn. Affinity measurements using Surface Plasmon Resonance (SPR) were performed using a ProteOn XPR36 system (BioRad). […] Approximately 6000 RU (response units) of mAbs were immobilized. The kinetic experiments were performed at 25° C. in running buffer (DPBS+0.01% P20+100 μg/ml BSA). […] The association phase was monitored for 3 minutes at 50 μL/min, then followed by 10 minutes of buffer flow (dissociation phase). The chip surface was regenerated with two 18 second pulses of 100 mM H3PO4 (Sigma, Cat #7961) at 100 μL/min. The collected data were processed using ProteOn Manager software. First, the data was corrected for background using inter-spots. Then, double reference subtraction of the data was performed by using the buffer injection for analyte injections. The kinetic analysis of the data was performed using a Langmuir 1:1 binding model. The result for each mAb was reported in the format of Ka (On-rate), Kd (Off-rate) and KD (equilibrium dissociation constant).

[5] = biological target: T4, rat IL-23R extracellular domain (ECD) …; test: SPR Biacore 8K, purified
Procedure: (§1) Affinity by SPR using Biacore 8K. Affinity measurements using Surface Plasmon Resonance (SPR) were performed using a Biacore 8K system (Cytiva). […] Approximately 9000-10000 RU (response units) of mAbs were immobilized. The kinetic experiments were performed at 25° C. in running buffer 1× of (HBS-P+ Buffer 10× (Cytiva #BR100671)+100 μg/ml BSA). To perform kinetic experiments, approximately 150 RU of mAbs were captured followed by injections of human IL-23R or rat IL-23R at concentrations ranging from 0.8 nM to 500 nM (in a 5-fold serial dilution). The association phase was monitored for 3 minutes at 50 μL/min, then followed by 30 minutes of buffer flow (dissociation phase). […] The collected data were processed using Biacore insight Evaluation software (Version 3.0.12.15655). The kinetic analysis of the data was performed using a Langmuir 1:1 binding model. The result for each mAb was reported in the format of Ka (On-rate), Kd (Off-rate) and KD (equilibrium dissociation constant).

[6] = biological target: T3, Recombinant human IL-23 receptor …; test: SPR Biacore 8K, purified, analysis 2
Procedure: as §1

[7] = biological target: T3, Recombinant human IL-23 receptor …; test: SPR Biacore 8K, supernatant, analysis 2
Method in brief: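 mAbs captured (~150 RU) on Biacore 8K; human or rat IL-23R ECD injected at 0.8–500 nM (5-fold series) at 25 °C in HBS-P+ with 100 μg/ml BSA. Association 3 min at 50 μL/min, dissociation 30 min. Ka, Kd and KD from Langmuir 1:1 fit.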

Binder | Kd [1] | EC50 [2] | EC50 [3] | MFI (6.4 nM) [3] | also measured
I23RB153 (antibody, mouse IgG2a, kappa, V domains shown, immunization; mouse IgG2a/kappa) VH: EVKLVESGGGLVQPGGSLKLSCAASGFTFSSDTMSWVRQTPEKRLELVAEISSNGGSTYHIDTVKGRFTISRDNAKNTLYLQMSSLKSEDTAMYYCASPGYPWFAYWGQGTTVTVSA VL: DIVMTQSHRFMSTSVGERVSITCKASQDVGNAVAWYQQKPGQSPKLLIYWTSTRHNGVPDRFTGSGSGTDFTLTISNVQGEDLADYFCQQYNRYPLTFGSGTKLEIKR | 2 nM | 4.4 nM | > 50 nM | 52800 MFI | –
I23RB318 (antibody, mouse IgG2a, kappa, V domains shown, phage display; human V, mouse IgG2a/kappa) VH: QVQLVQSGAEVKKPGSSVKVSCKASGGTFSSYAISWVRQAPGQGLEWMGGIIPIFGTANYAQKFQGRVTITADESTSTAYMELSSLRSEDTAVYYCARVRARHRGSFDYWGQGTLVTVSS VL: DIQMTQSPSSLSASVGDRVTITCRASQSIDRWLNWYQQKPGKAPKLLIYYASSLQSGVPSRFSGSGSGTDFTLTISSLQPEDFATYYCQQSYSTPLTFGQGTKVEIKR | 21 nM | 0.5 nM | 7.1 nM | 196000 MFI | –
I23RB56 (antibody, mouse IgG2a, kappa, V domains shown, immunization; mouse IgG2a/kappa) VH: EVKLVESGGGLVKPGGSLKLSCAASGFTFSSYAMSWVRQTPEKRLEWVAAINSNDGSTYYPDTVKDRFTISRDNAKNTLYLQMSSLRSEDTALYYCARHFLYFSNFYYFDYWGQGTTLTVSS VL: DIVMTQSPKFLLVSAGDRVTITCKASQSVSNDVAWYQQKPGQSPKLLIYYASNRYTGVPDRFTGSGYGTVFTFTISTVQAEDLAVYFCQQDYSSPFTFGSGTKLEIKR | 26 to 68 nM | 0.7 nM | > 50 nM | 118000 MFI | –
I23RB45 (antibody, mouse IgG2a, kappa, V domains shown, immunization; mouse IgG2a/kappa) VH: QVTLKESGPGILQPSQTLSLTCSFSGFSLSTYGMGVSWIRQPSGKGLEWLAHIYWDDDKRYNPSLKSRLTISKDTSNNQVFLKITSVDTADTATYYCAQRALPLLGQKAPFDYWGQGTTLTVSS VL: DIVLTQSQKFISTSVGDRVSITCKASQNVRTAVAWYQQKPGQSPKLLIYLPSNRHTGVPDRFTGSGSGTVFTLTISNVQSEDQADYFCLQHWNYPLTFGAGTKLELKR | 2 nM | 0.4 nM | 4.5 nM | 228000 MFI | –
I23RB30 (antibody, mouse IgG2a, kappa, V domains shown, immunization; mouse IgG2a/kappa) VH: not shown VL: DIVLTQSQRFMSTSVGDRVSITCKASQNIRTAVAWYQQKPGQSPKALIYLPSNRHTGVPDRFTGSGSGTDFTLTISNVQSEDLADYFCLQHWNYPLTFGAGTKLELKR | 36 to 46 nM | 1.2 nM | 8.3 nM | 185000 MFI | –
I23RB85 (antibody, mouse IgG2a, kappa, V domains shown, immunization; mouse IgG2a/kappa) VH: DVQLQESGPGLVAPSQSLSITCTVSGFSFNTYAITWVRQPPGRGLEWLGVLWPGGGISYNLALKSRLTISRDSSKSQVFLEMNSLQTDDTARYYCARNWRHYDGSYAMDFWGQGTSVTVSS VL: DIVLTQSPLSLFVSLGDQASISCRSSQSLVHSNGNTYLHWYLQKPGQSPKLLIYKVSNRFSGVPDRFSGSGSGTDFTLKISRVEAEDLGVYFCSQSTHVPWTFGGGTRLEIKR | 1 nM | ~0.6 nM | 13.5 nM | 64000 MFI | –
I23RB42 (antibody, mouse IgG2a, kappa, V domains shown, immunization; mouse IgG2a/kappa) VH: EVQLQQSGAELVKPGASVKISCKASGYSFTDYIMNWVKQSHGKSLEWIGNINPYFGFTSYNQEFKGKATLTVDKSSSTAYMLLNSLTSEDSAVYYCSRGSYYGYETFFDYWGQGTTLTVSS VL: DIVLTQTAPSVPVTPGESVSISCRSSKSLLHSNGNTYLYWFLQRPGQSPQLLIYRMSNLASGVPDRFSGSGSGTAFTLRISRVEAEDVGVYYCMQHLEYPYTFGSGTRLEIKR | ≤ 0.1 nM | 0.2 nM | 3.1 nM | 353000 MFI | –
I23RB7 (antibody, mouse IgG2a, kappa, V domains shown, phage display (mouse library); mouse antibody, mouse IgG2a/kappa) VH: QIQLVQSGPELKKPGETVKISCKASGYTFTTYGMSWVKQAPGKGLKWMGWINTYSGVPTYADDFKGRFAFSLETSASTAYLQINNLKNEDTATYYCARRDRYGYVAGAFAYWGQGTLVTVSS VL: QIVLTQSPAIMSASPGEKVTMTCSASSSVSYMYWYQQKPGSSPRLLIYDTSNLASGVPVRFSGSGSGTSYSLTISRMEAEDAATYYCQQWSSYPWTFGGGTKLEIKR | – | – | – | – | Kd [4]: 0.39 nM; koff [4]: 0.000226 s⁻¹; kon [4]: 581000 M⁻¹ s⁻¹; Kd [5]: 524 nM; koff [5]: 0.0127 s⁻¹; kon [5]: 24200 M⁻¹ s⁻¹; Kd [6]: 1.23 nM; koff [6]: 0.000246 s⁻¹; kon [6]: 199000 M⁻¹ s⁻¹; Kd [7]: 1.23 nM; koff [7]: 0.000247 s⁻¹; kon [7]: 200000 M⁻¹ s⁻¹
